Experimental data published in article PMC4624198.

Target: T1, HTP-3 (G490K, G728K), Strep-tagged (C. elegans), O01820
T1 chain: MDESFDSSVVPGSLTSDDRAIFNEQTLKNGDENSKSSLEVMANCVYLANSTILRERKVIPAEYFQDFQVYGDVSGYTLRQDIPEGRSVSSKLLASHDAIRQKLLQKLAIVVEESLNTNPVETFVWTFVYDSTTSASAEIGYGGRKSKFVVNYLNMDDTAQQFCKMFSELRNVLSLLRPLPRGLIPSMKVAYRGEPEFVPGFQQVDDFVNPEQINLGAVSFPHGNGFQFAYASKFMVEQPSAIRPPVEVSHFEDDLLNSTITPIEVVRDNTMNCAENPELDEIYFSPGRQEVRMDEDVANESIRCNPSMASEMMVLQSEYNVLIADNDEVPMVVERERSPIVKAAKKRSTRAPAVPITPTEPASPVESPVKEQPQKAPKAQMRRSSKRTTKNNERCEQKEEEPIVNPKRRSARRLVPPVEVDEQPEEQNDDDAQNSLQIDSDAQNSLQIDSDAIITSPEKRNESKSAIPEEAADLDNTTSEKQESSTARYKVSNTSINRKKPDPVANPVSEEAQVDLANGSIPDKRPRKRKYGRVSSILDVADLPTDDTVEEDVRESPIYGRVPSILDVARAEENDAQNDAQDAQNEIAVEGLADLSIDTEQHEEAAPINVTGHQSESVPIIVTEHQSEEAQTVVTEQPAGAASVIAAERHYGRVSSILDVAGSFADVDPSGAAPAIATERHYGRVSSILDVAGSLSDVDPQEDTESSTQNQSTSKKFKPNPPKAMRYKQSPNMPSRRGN
Test: pull-down
Conditions: remark: other sources report otherwise

HTP-1 bound, percent of the amount bound to the wild-type complex: 10%
B1: HTP-1, untagged, Q20305 1-352 (natural protein)
chain: MAPLETIYDESLNKSADSIDDKKWSKLFPRIVSDPDRSSNFMTRAIYVAFSAVLRNRNILGQEYFTKNYITEKLKCMTLCFRNPRSNQIAQLLRNAGDATKDGFLKEVSLVITNNEGDLEAIEVFSMKFIYFENGGVVARLSTDKNGQEDPHFAKLAQLVYEGGDSVRDQMVTIVRSVQFLCTKVLEPLPEEFTANFRLEYTNDAPSNFRIDGFEDSSTFYTLPDDIQSATIGHLRPGCHAANMECWSMLMSDSYEAELTLKRHLDKVSDRHGFNPVNVLYKSFNSEDSDTSLSQATTESVNDQGGNETSPVDDITESLEKAQMSPIQTRPTTRRGADGSKTRSSPYSRSCK
